Measurements published in patent US20250223358A1 (ANTENGENE BIOLOGICS, published 2025).
Changes are numbered by the printed parent chain. Where two headings read alike, the source gives them in different places. Each block holds one binder with its values, some of them ahead of it.

What was measured:
[1] = target: T1, human CD3 (human, UniProt P07766 23-207; P04234 22-171; P09693 23-182); experiment: cell-based or functional assay
[2] = target: T1, human CD3; experiment: FACS on Jurkat cells; for FACS MFI: test concentration or dose not given here
[3] = target: T2, cynomolgus CD3 (cynomolgus (Macaca fascicularis), UniProt Q95LI5 22-198; Q95LI8 22-171; Q95LI7 23-181); experiment: FACS on 293F-cynoCD3mix cells; note: test concentration or dose not given here
T2 construct: whole, on cells; composition of the 'mix' not defined; also called cynoCD3

[4] = target: T1, human CD3; experiment: FACS on Jurkat cells; remark: listed apart in the source; for FACS MFI: test concentration or dose not given here
[5] = target: T1, human CD3; experiment: cell-based or functional assay; remark: listed apart in the source
[6] = target: T1, human CD3; experiment: FACS on Jurkat cells; remark: listed apart in the source; for FACS MFI: test concentration or dose not given here
[7] = target: T1, human CD3; experiment: FACS on Jurkat cells; remark: listed apart in the source; for FACS MFI: test concentration or dose not given here
[8] = target: T1, human CD3; experiment: cell-based or functional assay; remark: listed apart in the source

T1 sequence (P07766 23-207, chain 1 of 3): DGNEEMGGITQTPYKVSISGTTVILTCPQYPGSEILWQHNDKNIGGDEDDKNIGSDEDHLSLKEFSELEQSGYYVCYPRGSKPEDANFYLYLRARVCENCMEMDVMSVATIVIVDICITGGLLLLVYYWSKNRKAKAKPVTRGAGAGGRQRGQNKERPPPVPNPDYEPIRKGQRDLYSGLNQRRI
T1 sequence (P04234 22-171, chain 2 of 3): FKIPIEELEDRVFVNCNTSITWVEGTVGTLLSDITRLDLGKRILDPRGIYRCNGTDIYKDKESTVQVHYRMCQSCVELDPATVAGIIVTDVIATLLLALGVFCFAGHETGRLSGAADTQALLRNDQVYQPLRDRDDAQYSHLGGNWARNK
T1 sequence (P09693 23-182, chain 3 of 3): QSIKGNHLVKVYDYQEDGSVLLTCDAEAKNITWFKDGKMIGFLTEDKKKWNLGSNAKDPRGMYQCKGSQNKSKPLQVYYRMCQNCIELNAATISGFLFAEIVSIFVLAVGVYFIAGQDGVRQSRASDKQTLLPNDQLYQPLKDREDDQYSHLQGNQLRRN
T2 sequence (Q95LI5 22-198, chain 1 of 3): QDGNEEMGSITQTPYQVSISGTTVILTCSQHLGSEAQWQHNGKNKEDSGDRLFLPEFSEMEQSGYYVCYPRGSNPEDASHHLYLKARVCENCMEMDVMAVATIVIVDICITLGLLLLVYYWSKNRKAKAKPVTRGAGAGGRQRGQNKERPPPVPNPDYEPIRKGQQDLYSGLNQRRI
T2 sequence (Q95LI8 22-171, chain 2 of 3): as the sequence (P04234 22-171, chain 2 of 3) above, with I5V, N15K, I20V, S32T, D33N, I34N, T64A, S74N, V83L, H141R counted along it
T2 sequence (Q95LI7 23-181, chain 3 of 3): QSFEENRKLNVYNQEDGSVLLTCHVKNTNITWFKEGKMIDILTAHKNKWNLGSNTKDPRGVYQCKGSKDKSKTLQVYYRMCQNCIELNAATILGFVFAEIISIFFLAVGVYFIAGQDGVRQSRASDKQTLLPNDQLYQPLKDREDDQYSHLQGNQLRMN

B2: 124E3D6 (antibody, V domains shown)
VH: QVQLQQPGTELVKPGASVKLSCKASGYTFTSYWMHWVKQRPGQGLEWIGNINPSNGDTNYNEKFKSKATLTVDKSSSTAYMQLSSLTSEDSAVYYCARDRSSQYYFDYWGQGTTLTVSS
VL: DIVMSQSPSSLAVSAGEKVTMSCKSSQSLLNSRTRKNYLAWYQQKPGQSPKLLIYWASTRESGVPDRFTGSGSGTDFTLTISSVQAEDLAVYYCKQSYNLRTFGGGTKLEIK
notes: mouse monoclonal (hybridoma) antibody
FACS MFI [3]: 400 MFI
FACS MFI [4]: 126 MFI

B3: 147C6F3 (antibody, V domains shown)
VH: B2 VH with T30D, I51L, D57E, T58I, S66H, A97S
VL: B2 VL with M21L, P46S, I54M, S82T, S83N, N99I
notes: as for B2
FACS MFI [3]: 2230 MFI
FACS MFI [4]: 1860 MFI

B5: 126A11A4 (antibody, V domains shown)
VH: B2 VH with G42E, S75A, S77N, A97G
VL: B2 VL with Y93F, Y98F, N99I
notes: as for B2
FACS MFI [3]: 2220 MFI
FACS MFI [4]: 1620 MFI

B6: 140D2B10 (antibody, V domains shown)
VH: B2 VH with D57E, T58S, S91Y
VL: B2 VL with N99T
notes: as for B2
FACS MFI [3]: 2040 MFI
FACS MFI [4]: 872 MFI

B7: 133B4C7 (antibody, V domains shown)
VH: B2 VH with Y60F
VL: B2 VL with K24N, N99T
notes: as for B2
FACS MFI [3]: 1780 MFI
FACS MFI [4]: 681 MFI

B8: 127E2D3 (antibody, V domains shown)
VH: B2 VH with Q43E, N52Y, S54G, N55S, G56S, D57S, T58I
VL: B2 VL with K95T
notes: as for B2
FACS MFI [3]: 1920 MFI
FACS MFI [4]: 930 MFI

Further lines, results first:

EC50 (activation of Jurkat-NFAT-Luc cells) [1]: 11.3 nM
Top FACS signal (activation of Jurkat-NFAT-Luc cells) [1]: 457
EC50 [2]: 18 nM
Top FACS signal [2]: 2720
B1: ch8-B12-F9-B11 (antibody, V domains shown)
VH: EVQLVESGGGIVKPGGSRKLSCAASGFTFSDYGMHWVRQAPEKGLEWIAYISSASGKIYYADTVKGRFTISRDNAKNILFLQMTSLRSEDTAMYYCARVLRWSVNYVMDYWGQGTSVTVSS
VL: DIVMTQSPSSLAVSAGEKVTMNCESSQSVLYSSNQKNYLAWYQQKPGQSPKLLIYWASTRESGVPDRFTGTGSGTDFTLTISSVQAEDLAVYYCHQYLSSWTFGGGTKLEIK

FACS MFI [3]: 2530 MFI
FACS MFI [4]: 2450 MFI
B4: 147E11E2 (antibody, V domains shown)
VH: B2 VH with A16T, D57A
VL: B2 VL with T34S, K95T, N99T
notes: as for B2

EC50 (activation of Jurkat-NFAT-Luc cells) [1]: 24.2 nM
Top FACS signal (activation of Jurkat-NFAT-Luc cells) [1]: 810
EC50_Fold change (Jurkat-NFAT-luciferase activation, normalized to ch40-C12-C10-E9) [5]: 1 fold
Top FACS signal_Fold change (Jurkat-NFAT-luciferase activation, normalized to ch40-C12-C10-E9) [5]: 1 fold
EC50 [6]: 0.45 nM
Top FACS signal [6]: 1620
EC50 [2]: 1.01 nM
Top FACS signal [2]: 2540
EC50 [7]: 0.41 nM
Top FACS signal [7]: 2940
EC50_Fold change (Jurkat-NFAT-luciferase activation, normalized to ch40-C12-C10-E9) [8]: 1 fold
Top signal_Fold change (Jurkat-NFAT-luciferase activation, normalized to ch40-C12-C10-E9) [8]: 1 fold
B9: ch40-C12-C10-E9 (antibody, V domains shown)
VH: EVQLQLSGPELVKPGASVKMSCKASGYTFSSYVIHWVKQKPGQGLEWIGYINPYNDVIKYNEKFKGKATLTSDKSSSTAYMELSSLTSEDSAVYYCARDSYYSYDGFAYWGQGTLVTVSA
VL: QIVLTQSPAIMSASPGEKVTMTCSASSSVSYMHWYQQKSGTSPKRWIYDTSKLASGVPARFSGSGSGTSYSLTISSMEAEDAATYYCQQWSSNPPTFGGGTKVEIK
